From the supplement of paper PMC12338614
± gives the uncertainty stated by the source.

B1: library; numbered along this chain (parent)
chain: MEVVDPQQLGMFTEGELMSVGMDTFIHRIDSTEVIYQPRRKRAKLIGKYLMGDLLGEGSYGKVKEVLDSETLCRRAVKILKKKKLRRIPNGEANVKKEIQLLRRLRHKNVIQLVDVLYNEEKQKMYMVMEYCVCGMQEMLDSVPEKRFPVCQAHGYFCQLIDGLEYLHSQGIVHKDIKPGNLLLTTGGTLKISDLGVAEALHPFAADDTCRTSQGSPAFQPPEIANGLDTFSGFKVDIWSAGVTLYNITTGLYPFEGDNIYKLFENIGKGSYAIPGDCGPPLSDLLKGMLEYEPAKRFSIRQIRQHSWFRKKHPPAEAPVPIPPSPDTKDRWRSMTVVPYLEDLHGADEDEDLFDIEDDIIYTQDFTVPGQVPEEEASHNGQRRGLPKAVCMNGTEAAQLSTKSRAEGRAPNPARKACSASSKIRRLSACKQQ

Variants of: B1
Experiment: STK11 functional score (HeLa growth suppression), rescaled enrichment; synonymous median = 1, nonsense median = 0 (normalised score)
Settings: with HeLa; variant type: missense
Outline: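 The values are functional scores: wild-type-corrected log ratios of post- versus pre-selection abundance, rescaled to synonymous and nonsense medians, merged over codons and replicate transfections, and carrying bootstrapped error. They derive from codon-randomised (POPCode), codon-optimised STK11 libraries that Bxb1 integrated at an AAVS1 landing pad in HeLa, with three transfections for each of three regions. Sequencing of tiled gDNA amplicons ran on NextSeq, at ~2 million reads per tile.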

Variant | STK11 functional score
MEVVDPQQLGMFTEGELMSVGMDTFIHRIDSTEVIYQPRRKRAKLIGKYLMGDLLGEGSYGKVKEVLDSETLCRRAVKILKKKKLRRIPNGEANVKKEIQLLRRLRHKNVIQLVDVLYNEEKQKMYMVMEYCVCGMQEMLDSVPEKRFPVCQAHGYFCQLIDGLEYLHSQGIVHKDIKPGNLLLTTGGTLKISDLGVAEALHPFAADDTCRTSQGSPAFQPPEIANGLDTFSGFKVDIWSAGVTLYNITTGLYPFEGDNIYKLFENIGKGSYAIPGDCGPPLSDLLKGMLEYEPAKRFSIRQIRQHSWFRKKHPPAEAPVPIPPSPDTKDRWRSMTVVPYLEDLHGADEDEDLFDIEDDIIYTQDFTVPGQVPEEEASHNGQRRGLPKAVCMNGTEAAQLSTKSRAEGRAPNPARKACSASSKIRRSSACKQQ [L427S] | 1.55 ± 0.11
MEVVDPQQLGMFTEGELMSVGMDTFIHRIDSTEVIYQPRRKRAKLIGKYLMGDLLGEGSYGKVKEVLDSETLCRRAVKILKKKKLRRIPNGEANVKKEIQLLRRLRHKNVIQLVDVLYNEEKQKMYMVMEYCVCGMQEMLDSVPEKRFPVCQAHGYFCQLIDGLEYLHSQGIVHKDIKPGNLLLTTGGTLKISDLGVAEALHPFAADDTCRTSQGSPAFQPPEIANGLDTFSGFKVDIWSAGVTLYNITTGLYPFEGDNIYKLFENIGKGSYAIPGDCGPPLSDLLKGMLEYEPAKRFSIRQIRQHSWFRKKHPPAEAPVPIPPSPDTKDRWRSMTVVPYLEDLHGADEDEDLFDIEDDIIYTQDFTVPGQVPEEEASHNGQRRGLPKAVCMNGTEAAQLSTKSRAEGRAPNPARKACSASSKIRRYSACKQQ [L427Y] | 0.805 ± 0.33
MEVVDPQQLGMFTEGELMSVGMDTFIHRIDSTEVIYQPGRKRAKLIGKYLMGDLLGEGSYGKVKEVLDSETLCRRAVKILKKKKLRRIPNGEANVKKEIQLLRRLRHKNVIQLVDVLYNEEKQKMYMVMEYCVCGMQEMLDSVPEKRFPVCQAHGYFCQLIDGLEYLHSQGIVHKDIKPGNLLLTTGGTLKISDLGVAEALHPFAADDTCRTSQGSPAFQPPEIANGLDTFSGFKVDIWSAGVTLYNITTGLYPFEGDNIYKLFENIGKGSYAIPGDCGPPLSDLLKGMLEYEPAKRFSIRQIRQHSWFRKKHPPAEAPVPIPPSPDTKDRWRSMTVVPYLEDLHGADEDEDLFDIEDDIIYTQDFTVPGQVPEEEASHNGQRRGLPKAVCMNGTEAAQLSTKSRAEGRAPNPARKACSASSKIRRLSACKQQ [R39G] | 1.04 ± 0.45
MEVVDPQQLGMFTEGELMSVGMDTFIHRIDSTEVIYQPRRKRAKLIGKYLMGDLLGEGSYGKVKEVLDSETLCRRAVKILKKKKLRRIPNGEANVKKEIQLLRRLRHKNVIQLVDVLYNEEKQKMYMVMEYCVCGMQEMLDSVPEKRFPVCQAHGYFCQLIDGLEYLHSQGIVHKDIKPGNLLLTTGGTLKISDLGVAEALHPFAADDTCRTSQGSPAFQPPEIANGLDTFSGFKVDIWSAGVTLYNITTGLYPFEGDNIYKLFENIGKGSYAIPGDCGPPLSDLLKGMLEYEPAKRFSIRQIRQHSWFRIKHPPAEAPVPIPPSPDTKDRWRSMTVVPYLEDLHGADEDEDLFDIEDDIIYTQDFTVPGQVPEEEASHNGQRRGLPKAVCMNGTEAAQLSTKSRAEGRAPNPARKACSASSKIRRLSACKQQ [K311I] | 1.26 ± 0.24
MEVVDPQQLGMFTEGELMSVGMDTFIHRIDSTEVIYQPRRKRAKLIGKYLMGDLLGEGSYGKVKEVLDSETLCRRAVKILKKKKLRRIPNGEANVKKEIQLLRRLRHKNVIQLVDVLYNEEKQKLYMVMEYCVCGMQEMLDSVPEKRFPVCQAHGYFCQLIDGLEYLHSQGIVHKDIKPGNLLLTTGGTLKISDLGVAEALHPFAADDTCRTSQGSPAFQPPEIANGLDTFSGFKVDIWSAGVTLYNITTGLYPFEGDNIYKLFENIGKGSYAIPGDCGPPLSDLLKGMLEYEPAKRFSIRQIRQHSWFRKKHPPAEAPVPIPPSPDTKDRWRSMTVVPYLEDLHGADEDEDLFDIEDDIIYTQDFTVPGQVPEEEASHNGQRRGLPKAVCMNGTEAAQLSTKSRAEGRAPNPARKACSASSKIRRLSACKQQ [M125L] | 1 ± 0.14
MEVVDPQQLGMFTEGELMSVGMDTFIHRIDSTEVIYQPRRKRAKLIGKYLMGDLLGEGSYGKVKEVLDSETLCRRAVKILKKKKLRRIPNGEANVKKEIILLRRLRHKNVIQLVDVLYNEEKQKMYMVMEYCVCGMQEMLDSVPEKRFPVCQAHGYFCQLIDGLEYLHSQGIVHKDIKPGNLLLTTGGTLKISDLGVAEALHPFAADDTCRTSQGSPAFQPPEIANGLDTFSGFKVDIWSAGVTLYNITTGLYPFEGDNIYKLFENIGKGSYAIPGDCGPPLSDLLKGMLEYEPAKRFSIRQIRQHSWFRKKHPPAEAPVPIPPSPDTKDRWRSMTVVPYLEDLHGADEDEDLFDIEDDIIYTQDFTVPGQVPEEEASHNGQRRGLPKAVCMNGTEAAQLSTKSRAEGRAPNPARKACSASSKIRRLSACKQQ [Q100I] | 1.64 ± 0.19
MEVVDPQQLGMFTEGELMSVGMDTFIHRIDSTEVIYQPRRKRAKLIGKYLMGDLLGEGSYGKVKEVLDSETLCRRAVKILKKKKLRRIPNGEANVKKEIQLLRRLRHKNVIQLVDVLYNEEKQKMYMVMEYCVCGMQEMLDSVPEKRFPVCQAHGYFCQLIDGLEYLHSQGIVHKDIKPGNLLLTTGGTLKISDLGVAEALHPFAADDTCRTSQGSPAFQPPEIANGLDTFSGFKVDIWSAGVTLYNITTGLYPFEGDNIYKLFENIGKGSYAIPGDCGPPLSDLLKGMLEYEPAKRFSIRQIRQHSWFRKKHPPAEAPVPIPPSPDTKDRWRSMTVVPYLEDLHGADEDEDLFDIEDDIYYTQDFTVPGQVPEEEASHNGQRRGLPKAVCMNGTEAAQLSTKSRAEGRAPNPARKACSASSKIRRLSACKQQ [I361Y] | 0.312 ± 0.54
MEVVDPQQLGMFTEGELMSVGMDTFIHRIDSTEVIYQPRRKRAKLIGKYLMGDLLGEGSYGKVKEVLDSETLCRRAVKILKKKKLRRIPNGEANVKKEIQLLRRLRHKNVIQLVDVLYNEEKQKMYMVMEYCVCGMQEMLDSVPEKRFPVCQAHGYFCQLIDGLEYLHSQGIVHKDIKPGNLLLTTGGTLKISDLGVAEALHPFAADDTCRTSQGSPAFQPPEIANGLDTFSGFKVDIWSAGVTLYNITTGLYPFEGDNIYHLFENIGKGSYAIPGDCGPPLSDLLKGMLEYEPAKRFSIRQIRQHSWFRKKHPPAEAPVPIPPSPDTKDRWRSMTVVPYLEDLHGADEDEDLFDIEDDIIYTQDFTVPGQVPEEEASHNGQRRGLPKAVCMNGTEAAQLSTKSRAEGRAPNPARKACSASSKIRRLSACKQQ [K262H] | 1.52 ± 0.42
MEVVDPQQLGMFTEGELMSVGMDTFIHRIDSTEVIYQPRRKRAKLIGKYLMGDLLGEGSYGKVKEVLDSETLCRRAVKILKKKKLRRIPNGEANVKKEIQLLRRLRHKNVIQLVDVLYNEEKQKMYMVMEYCVCGMQEMLDSVVEKRFPVCQAHGYFCQLIDGLEYLHSQGIVHKDIKPGNLLLTTGGTLKISDLGVAEALHPFAADDTCRTSQGSPAFQPPEIANGLDTFSGFKVDIWSAGVTLYNITTGLYPFEGDNIYKLFENIGKGSYAIPGDCGPPLSDLLKGMLEYEPAKRFSIRQIRQHSWFRKKHPPAEAPVPIPPSPDTKDRWRSMTVVPYLEDLHGADEDEDLFDIEDDIIYTQDFTVPGQVPEEEASHNGQRRGLPKAVCMNGTEAAQLSTKSRAEGRAPNPARKACSASSKIRRLSACKQQ [P144V] | 0.879 ± 0.22
MEVVDPQQLGMFTEGELMSVGMDTFIHRIDSTEVIYQPRRKRAKLIGKYLMGDLLGEGSYGKVKEVLDSETLCRRAVKILKKKKLRRIPNGEANVKKEIQLLRRLRHKNVIQLVDVLYNEEKQKMYMVMEYCVCGMQEMLDSVEEKRFPVCQAHGYFCQLIDGLEYLHSQGIVHKDIKPGNLLLTTGGTLKISDLGVAEALHPFAADDTCRTSQGSPAFQPPEIANGLDTFSGFKVDIWSAGVTLYNITTGLYPFEGDNIYKLFENIGKGSYAIPGDCGPPLSDLLKGMLEYEPAKRFSIRQIRQHSWFRKKHPPAEAPVPIPPSPDTKDRWRSMTVVPYLEDLHGADEDEDLFDIEDDIIYTQDFTVPGQVPEEEASHNGQRRGLPKAVCMNGTEAAQLSTKSRAEGRAPNPARKACSASSKIRRLSACKQQ [P144E] | 1.63 ± 0.2
MEVVDPQQLGMFTEGELMSVGMDTFIHRIDSTEVIYQPRRKRAKLIGKYLMGDLLGEGSYGKVKEVLDSETLCRRAVKILKKKKLRRIPNIEANVKKEIQLLRRLRHKNVIQLVDVLYNEEKQKMYMVMEYCVCGMQEMLDSVPEKRFPVCQAHGYFCQLIDGLEYLHSQGIVHKDIKPGNLLLTTGGTLKISDLGVAEALHPFAADDTCRTSQGSPAFQPPEIANGLDTFSGFKVDIWSAGVTLYNITTGLYPFEGDNIYKLFENIGKGSYAIPGDCGPPLSDLLKGMLEYEPAKRFSIRQIRQHSWFRKKHPPAEAPVPIPPSPDTKDRWRSMTVVPYLEDLHGADEDEDLFDIEDDIIYTQDFTVPGQVPEEEASHNGQRRGLPKAVCMNGTEAAQLSTKSRAEGRAPNPARKACSASSKIRRLSACKQQ [G91I] | 1.63 ± 0.22
MEVVDPQQLGMFTEGELMSVGMDTFIHRIDSTEVIYQPRRKRAKLIGKYLMGDLLGEGSYGKVKEVLDSETLCRRAVKILKKKKLRRIPNGEANVKKEIQLLRRLRHKNVIQLVDVLYNEEKQKMYMVMEYCVCGMQEMLDSVPEKRFPVCQAHGYFCQLIDGLEYLHSQGIVHKDIKPGNLLLTTGGTLKISDLGVAEALHPFAADDTCRTSQGSPAFQPPEIANGLDTFSGFKVDIWSAGVTLYNITTGLYPFEGDNIYKLFENIGKGSYAIPGDCGPPLSDLLKGMLEYEPAKRFSIRQIRQHSWFRKKHPPAEAPVPIPPSPDTKDRWRSMTVVPYLEDLHGADEDEDLFDIEDDIIYTQDFTVPGQVPEEEASENGQRRGLPKAVCMNGTEAAQLSTKSRAEGRAPNPARKACSASSKIRRLSACKQQ [H379E] | 0.586 ± 0.27
MEVVDPQQLGMFTEGELMSVGMDTFIHRIDSTEVIYQPRRKRAKLIGKYLMGDLLGEGSYGKVKEVLDSETLCRRAVKILKKKKLRRIPNGEANVKKEIQLLRRLRHKNVIQLVDVLYNEEKQKMYMVMEYCVCGMQEMLDSVPEKRFPVCQAHGYFCQLIDGLEYLHSQGIVHKDIKPGNLLLTTGGTLKISDLGVAEALHPFAADDTCRTSQGSPAFQPPEIANGLDTFSGFKVDIWSAGVTLYNITTGLYPFEGDNNYKLFENIGKGSYAIPGDCGPPLSDLLKGMLEYEPAKRFSIRQIRQHSWFRKKHPPAEAPVPIPPSPDTKDRWRSMTVVPYLEDLHGADEDEDLFDIEDDIIYTQDFTVPGQVPEEEASHNGQRRGLPKAVCMNGTEAAQLSTKSRAEGRAPNPARKACSASSKIRRLSACKQQ [I260N] | 1.67 ± 0.52
MEVVDPQQLGMFTEGELMSVGMDTFIHRIDSTEVIYQPRRKRAKLIGKYLMGDLLGEGSYGKVKEVLDSETLCRRAVKILKKKKLRRIPNGEANVKKEIQLLRRLRHKNVIQLVDVLYNEEKQKMYMVMEYCVCGMQEMLDSVPEKRFPVCQAHGYFCQLIDGLEYLHSQGIVHKDIKPGNLLLTTGGTLKISDLGVAEALHPFAADDTCRTSQGSPAFQPPEIANGLDTFSGFKVDIWSAGVTLYNITTGLYPFEGDNIYKLFENIGKGSYAIPGDCGPPLSDLLKGMLDYEPAKRFSIRQIRQHSWFRKKHPPAEAPVPIPPSPDTKDRWRSMTVVPYLEDLHGADEDEDLFDIEDDIIYTQDFTVPGQVPEEEASHNGQRRGLPKAVCMNGTEAAQLSTKSRAEGRAPNPARKACSASSKIRRLSACKQQ [E291D] | 1.03 ± 0.35
